These are literature values, as cited in patent publication US6823267B2, “Structural prediction of allosterism” (The Johns Hopkins University, priority 2000, dated 2004).

This data set concerns the target glycerol kinase (Escherichia coli, UniProt P0A6F3). The settings on record: at 25° C.

Chain of glycerol kinase (P0A6F3 whole entry): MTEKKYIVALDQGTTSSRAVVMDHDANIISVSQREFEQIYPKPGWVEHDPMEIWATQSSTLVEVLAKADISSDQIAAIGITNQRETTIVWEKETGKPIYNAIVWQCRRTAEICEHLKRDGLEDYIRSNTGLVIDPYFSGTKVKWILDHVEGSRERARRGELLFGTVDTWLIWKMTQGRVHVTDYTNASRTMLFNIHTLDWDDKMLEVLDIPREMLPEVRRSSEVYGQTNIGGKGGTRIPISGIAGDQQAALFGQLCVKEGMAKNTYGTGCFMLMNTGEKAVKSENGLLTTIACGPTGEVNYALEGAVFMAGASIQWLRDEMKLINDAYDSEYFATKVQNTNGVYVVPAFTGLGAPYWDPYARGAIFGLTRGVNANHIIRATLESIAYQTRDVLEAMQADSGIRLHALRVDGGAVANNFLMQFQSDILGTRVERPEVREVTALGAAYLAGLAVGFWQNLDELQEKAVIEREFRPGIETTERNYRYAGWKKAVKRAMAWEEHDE

B1: IIAGlc: protein that is an allosteric inhibitor of the enzyme glycerol kinase (protein, UniProt P69783 2-169, looked up)
PTS system glucose-specific …: GLFDKLKSLVSDDKKDTGTIEIIAPLSGEIVNIEDVPDVVFAEKIVGDGIAIKPTGNKMVAPVDGTIGKIFETNHAFSIESDSGVELFVHFGIDTVELKGEGFKRIAEEGQRVKVGDTVIEFDLPLLEEKAKSTLTPVVISNMDEIKELIKLSGSVTVGETPVIRIKK
Regarding B1, the “association constant of IIAGlc to glycerol kinase” value is reported as ~10^5 M^−1.
